Assay [1] addresses F-actin (chicken skeletal actin) (chicken) (UniProt P68139).
In assay [2] the target is pyrene-labeled F-actin (chicken skeletal actin) (chicken) (UniProt P68139). As to the kind of experiment: stopped-flow transient kinetics (pyrene-actin fluorescence); no nucleotide; k'+A from linear fits of kobs; k'-A from mixing 1 µM pyrene-actomyosin complex with excess unlabeled F-actin; 1/K'A calculated as k'-A/k'+A; 20 °C, 20 mM MOPS, 100 mM KCl, 5 mM MgCl2, 1 mM DTT, pH 7.0.

The target is the same in assay [3]. As to the kind of experiment: double-mixing stopped-flow (pyrene-actin fluorescence quench); weak-to-strong transition, single turnover: 2 µM myosin mixed with sub-equimolar ATP (1.8 µM), aged 3 s, then mixed with 20 µM pyrene-actin; double exponential fits; 20 °C.
For assay [4] the target is unchanged. The assay is described as above. This is another data set of the same source.
Assay [5] shares this target. As to the kind of experiment: stopped-flow (pyrene-actin fluorescence amplitude); multiple turnover: 2 µM myosin and 15 µM pyrene-actin mixed with 20 µM ATP; signal normalised to 100% of myosin bound to actin without nucleotide; fraction strongly bound from the change in total amplitude.
Assay [6] has the same target. The assay is described as above. The source holds these as a separate data set.
Assay [7] shares this target. Briefly: stopped-flow transient kinetics (pyrene-actin fluorescence); with ADP (ADP-myosin); k'+DA from linear dependence of kobs on pyrene-actin concentration; k'-DA from 1 µM pyrA.M pre-incubated with excess ADP mixed with excess unlabeled F-actin; 1/K'DA calculated as k'-DA/k'+DA; 20 °C, 20 mM MOPS, 100 mM KCl, 5 mM MgCl2, 1 mM DTT, pH 7.0.
Assay [8] deals with F-actin (chicken skeletal actin) (chicken) (UniProt P68139). As to the kind of experiment: double-mixing stopped-flow, actin-activated Pi release (MDCC-PBP fluorescence); M.D.Pi state; multiple turnover: 2 µM myosin mixed with 200 µM ATP, aged 0.1 s, then mixed with increasing F-actin in excess ADP, 5 µM MDCC-PBP; hyperbolic fit kobs = k'+4[actin]/(1/K'DPA+[actin]); 20 °C, 20 mM MOPS, 100 mM KCl, 5 mM MgCl2, 1 mM DTT, pH 7.0.

Read-outs that look alike come from different tables or passages of the source.

Broadly, the Kd is the constant that tells how readily two partners part at equilibrium. For orientation: koff means the first-order rate constant of dissociation. The term kon denotes the rate constant with which the complex forms. As for “M765^AA-2R, D. discoideum myosin-2 motor domain (amino acids 1-765) with T647A, T648A fused to two alpha-actinin repeats (from UniProt P08799 1-765) (domain or fragment)”, in assay [1], the Kapp of the actin-activated steady-state ATPase (F-actin concentration at kcat/2), NADH-coupled assay was above 100 µM and the kcat/Kapp (catalytic efficiency) of the actin-activated steady-state ATPase is below 0.03 µM⁻¹ s⁻¹. In assay [2], the Kd was 10 nM, the koff is 0.004 s⁻¹ and the kon is 610000 M⁻¹ s⁻¹.

For the substance “M765^GGG-2R, D. discoideum myosin-2 motor domain (amino acids 1-765) with the two W-loop threonines replaced by three glycines, fused to two alpha-actinin repeats (from UniProt P08799 1-765) (domain or fragment)”, in assay [1], the Kapp of the actin-activated steady-state ATPase (F-actin concentration at kcat/2), NADH-coupled assay amounted to 54 µM and the kcat/Kapp (catalytic efficiency) of the actin-activated steady-state ATPase was determined as 0.14 µM⁻¹ s⁻¹. For the same substance, the k'weak-strong (observed rate of the weak-to-strong actin-binding transition) in assay [3] was 2.6 s⁻¹. Further, in assay [4], the k'weak-strong (observed rate of the weak-to-strong actin-binding transition) was found to be 2.3 s⁻¹. Besides, the percent strongly actin-bound with ATP (experimental duty ratio) in assay [5] came to 35%. In addition, the percent strongly actin-bound with ATP (experimental duty ratio) in assay [6] was found to be 45%. In assay [2], the Kd was 11 nM, the koff is 0.005 s⁻¹ and the kon was 610000 M⁻¹ s⁻¹. Moreover, in assay [7], the Kd was 24 nM, the koff is 0.005 s⁻¹ and the kon was 180000 M⁻¹ s⁻¹. Besides, in assay [8], the Kd was found to be 18 µM and the k'+4K'DPA (second order rate constant of M.D.Pi binding to actin) amounted to 0.79 µM⁻¹ s⁻¹.

In the case of “M765^wt-2R, D. discoideum myosin-2 motor domain (amino acids 1-765) fused to an artificial lever of two alpha-actinin repeats (from UniProt P08799 1-765) (domain or fragment)”, in assay [1], the Kapp of the actin-activated steady-state ATPase (F-actin concentration at kcat/2), NADH-coupled assay is above 100 µM and the kcat/Kapp (catalytic efficiency) of the actin-activated steady-state ATPase is below 0.03 µM⁻¹ s⁻¹. For the same substance, the k'weak-strong (observed rate of the weak-to-strong actin-binding transition) in assay [3] was found to be 1 s⁻¹. In assay [2], the Kd is 5.7 nM, the koff is 0.003 s⁻¹ and the kon was 640000 M⁻¹ s⁻¹. Also, in assay [7], the Kd is 63 nM, the koff is 0.006 s⁻¹ and the kon was 120000 M⁻¹ s⁻¹. In assay [8], this substance returned a Kd of 94 µM and a k'+4K'DPA (second order rate constant of M.D.Pi binding to actin) of 0.04 µM⁻¹ s⁻¹.

Source of the values: paper PMC7795666.
